Data reported in US20160313325A1.

Legend:
[1] = molecular target: gp41 of mutant "G-I-A" (pNL-Bal with Valine to Alanine at position 38 of gp41) (HIV-1 clone BAL2 (subtype B, CCR5-tropic))
[2] = molecular target: gp41 of mutant "D-I-A" (pNL-Bal with Glycine to Aspartic Acid at position 36 and Valine to Alanine at position 38 of gp41) (HIV-1 clone BAL2 (subtype B, CCR5-tropic))
[3] = molecular target: gp41 of pNL4-3 (HIV-1 pNL4-3 (subtype B, CXCR4-tropic))
[4] = molecular target: gp41 of mutant "G-I-A" (pNL-Bal with Valine to Alanine at position 38 of gp41) (HIV-1 clone BAL2 (subtype B, CCR5-tropic)); remark: listed apart in the source

Q: Which results are given for T20 (Enfuvirtide, Fuzeon) (peptide)?
A: IC50 (nM), inhibition of viral replication, deCIPhR [1]: 127 nM; Rf (resistance factor, IC50 on mutant virus / IC50 on reference strain) [1]: 12.7 fold; IC50 (nM), inhibition of viral replication, deCIPhR [2]: 2270 nM; Rf (resistance factor, IC50 on mutant virus / IC50 on reference strain) [2]: 227 fold; IC50 (nM), inhibition of viral replication, deCIPhR cell to cell infection [3]: 76 nM; IC50 (nM), inhibition of viral replication, virus to cell infection [3]: 48 nM; Resistance factor (IC50mut/IC50wt) IC50 fold increase [4]: 13 fold
